Conditions in all cases: both partners purified
Experiment [1] addresses T1, biotinylated GST-MmIMPβ1 (Mus musculus importin β1) (Mus musculus, UniProt P70168 1-876, biotin (Sulfo-NHS-Biotin reagent)).
T1 construct: Mus musculus importin β1 (MmIMPβ1); also called M. musculus IMPβ1; mammalian IMPβ1; source: recombinantly expressed, purified as GST fusion protein
As to the kind of experiment: AlphaScreen or HTRF; His-tagged IMPαs (30 nM) titrated with increasing concentrations of biotinylated GST-MmIMPβ1 (legend: 5 nM). In general terms: In Alpha technology, singlet oxygen from a donor bead excites a nearby acceptor bead.

For experiment [2], the target named is mammalian IMPα/β1 heterodimer from M. musculus (Mus musculus, UniProt P52293 1-529; P70168 1-876, biotin (Sulfo-NHS-Biotin reagent)). As to the kind of experiment: AlphaScreen or HTRF; biotinylated IMPαs titrated against His-tagged NLS-GFPs (30 nM); apparent dissociation constant.
Experiment [3] deals with T2, Plasmodium falciparum importin α, biotinylated GST fusion protein (Plasmodium falciparum, UniProt Q8IAW0 1-545, biotin (Sulfo-NHS-Biotin reagent)).
T2 construct: importin α (IMPα) of Plasmodium falciparum; also called PfIMPα; IMPα from P. falciparum; source: recombinantly expressed, purified as GST fusion protein
T2 sequence (looked up): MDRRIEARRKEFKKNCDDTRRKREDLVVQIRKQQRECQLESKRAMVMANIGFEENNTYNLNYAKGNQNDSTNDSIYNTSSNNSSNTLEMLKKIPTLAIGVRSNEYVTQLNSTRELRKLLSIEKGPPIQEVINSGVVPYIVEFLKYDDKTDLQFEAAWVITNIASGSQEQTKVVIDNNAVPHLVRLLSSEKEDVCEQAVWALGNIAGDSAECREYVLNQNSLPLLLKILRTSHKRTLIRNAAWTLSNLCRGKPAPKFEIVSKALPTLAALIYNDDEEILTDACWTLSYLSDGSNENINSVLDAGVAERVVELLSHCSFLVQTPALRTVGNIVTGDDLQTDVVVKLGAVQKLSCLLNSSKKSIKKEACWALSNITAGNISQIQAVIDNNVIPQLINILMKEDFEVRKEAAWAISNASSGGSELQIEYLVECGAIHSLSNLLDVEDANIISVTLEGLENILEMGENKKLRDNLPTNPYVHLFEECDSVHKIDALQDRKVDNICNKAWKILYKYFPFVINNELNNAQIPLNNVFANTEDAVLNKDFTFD
The experiment is described as above.

Experiment [4] concerns the target T3, Toxoplasma gondii importin α, biotinylated GST fusion protein (Toxoplasma gondii, biotin (Sulfo-NHS-Biotin reagent)).
T3 construct: importin α (IMPα) of Toxoplasma gondii; also called TgIMPα; T. gondii IMPα; source: recombinantly expressed, purified as GST fusion protein
Described as above.

B1: His-tagged Plasmodium falciparum importin α (natural protein, UniProt Q8IAW0 1-545, looked up)
chain: T2 sequence (looked up)
notes: importin α (IMPα) of Plasmodium falciparum; also called PfIMPα; His-tagged PfIMPα
The molecule B1 gave a Kd in experiment [1] of 1.3 nM.

As for PPKKKRKV (domain or fragment) [His-tagged T-ag-NLS-GFP (NLS of simian virus SV40 large tumour antigen fused to GFP)], the Kd in experiment [2] amounted to 2.8 nM; in experiment [3], 2.9 nM; in experiment [4], 3.9 nM.

For the origin of these results see article PMC9695642, “Conservation of Importin α Function in Apicomplexans: Ivermectin and GW5074 Target Plasmodium falciparum Importin α and Inhibit Parasite Growth in Culture” (International Journal of Molecular Sciences, 2022).
